According to publication PMC4114019:

Molecular target: T1, Purified FLAG-IKKε protein, Q14164
T1 chain: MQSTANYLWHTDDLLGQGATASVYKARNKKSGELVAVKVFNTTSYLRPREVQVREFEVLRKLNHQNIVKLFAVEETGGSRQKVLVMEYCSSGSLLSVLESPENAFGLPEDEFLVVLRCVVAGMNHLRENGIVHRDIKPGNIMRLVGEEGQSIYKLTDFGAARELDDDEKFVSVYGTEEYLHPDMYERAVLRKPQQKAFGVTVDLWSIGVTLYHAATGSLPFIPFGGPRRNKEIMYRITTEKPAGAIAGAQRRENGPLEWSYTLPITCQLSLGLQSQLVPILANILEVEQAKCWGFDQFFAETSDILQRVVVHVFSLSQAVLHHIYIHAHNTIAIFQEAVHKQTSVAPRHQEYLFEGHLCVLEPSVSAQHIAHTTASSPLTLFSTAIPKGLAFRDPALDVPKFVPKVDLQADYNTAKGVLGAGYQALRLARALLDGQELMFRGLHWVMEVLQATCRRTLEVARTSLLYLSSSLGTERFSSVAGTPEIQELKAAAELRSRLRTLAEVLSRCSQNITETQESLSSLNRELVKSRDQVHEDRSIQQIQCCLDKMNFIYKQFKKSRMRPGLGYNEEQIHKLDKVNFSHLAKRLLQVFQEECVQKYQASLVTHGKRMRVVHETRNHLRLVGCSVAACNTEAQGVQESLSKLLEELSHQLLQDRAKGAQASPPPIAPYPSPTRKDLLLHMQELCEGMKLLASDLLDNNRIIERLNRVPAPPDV
Assay: native gel or EMSA
Settings: remark: other sources report otherwise

- stoichiometry N: 2
B1: Purified FLAG-IKKε protein, Q14164 1-716 (enzyme)
chain: MQSTANYLWHTDDLLGQGATASVYKARNKKSGELVAVKVFNTTSYLRPREVQVREFEVLRKLNHQNIVKLFAVEETGGSRQKVLVMEYCSSGSLLSVLESPENAFGLPEDEFLVVLRCVVAGMNHLRENGIVHRDIKPGNIMRLVGEEGQSIYKLTDFGAARELDDDEKFVSVYGTEEYLHPDMYERAVLRKPQQKAFGVTVDLWSIGVTLYHAATGSLPFIPFGGPRRNKEIMYRITTEKPAGAIAGAQRRENGPLEWSYTLPITCQLSLGLQSQLVPILANILEVEQAKCWGFDQFFAETSDILQRVVVHVFSLSQAVLHHIYIHAHNTIAIFQEAVHKQTSVAPRHQEYLFEGHLCVLEPSVSAQHIAHTTASSPLTLFSTAIPKGLAFRDPALDVPKFVPKVDLQADYNTAKGVLGAGYQALRLARALLDGQELMFRGLHWVMEVLQATCRRTLEVARTSLLYLSSSLGTERFSSVAGTPEIQELKAAAELRSRLRTLAEVLSRCSQNITETQESLSSLNRELVKSRDQVHEDRSIQQIQCCLDKMNFIYKQFKKSRMRPGLGYNEEQIHKLDKVNFSHLAKRLLQVFQEECVQKYQASLVTHGKRMRVVHETRNHLRLVGCSVAACNTEAQGVQESLSKLLEELSHQLLQDRAKGAQASPPPIAPYPSPTRKDLLLHMQELCEGMKLLASDLLDNNRIIERLNRVPAPPDV
